Test results: the supplement of paper PMC11246515
± gives the standard deviation of the averaged measurements.

Experiment: total protein half-life in vivo (active degradation + dilution); higher = more stable protein
[1] = E. coli NCM3722 delta-clpP delta-lon delta-hslV, growth: N-lim chemostat, doubling time 6 h
[2] = E. coli NCM3722 delta-clpP, growth: N-lim chemostat, doubling time 6 h
[3] = E. coli NCM3722 delta-hslV, growth: N-lim chemostat, doubling time 6 h
[4] = E. coli NCM3722 delta-lon, growth: N-lim chemostat, doubling time 6 h
[5] = E. coli NCM3722 delta-smpB, growth: N-lim chemostat, doubling time 6 h
[6] = wild type E. coli NCM3722, growth: C-lim chemostat, doubling time 3 h
[7] = wild type E. coli NCM3722, growth: C-lim chemostat, doubling time 6 h
[8] = wild type E. coli NCM3722, growth: C-lim chemostat, doubling time 12 h
[9] = wild type E. coli NCM3722, growth: N-lim chemostat, doubling time 6 h
[10] = wild type E. coli NCM3722, growth: N-lim chemostat, doubling time 12 h
[11] = wild type E. coli NCM3722, growth: P-lim chemostat, doubling time 6 h
[12] = wild type E. coli NCM3722, growth: P-lim chemostat, doubling time 12 h

| Sequence | total protein half-life in vivo [1] [h] | total protein half-life in vivo [2] [h] | total protein half-life in vivo [3] [h] | total protein half-life in vivo [4] [h] | total protein half-life in vivo [5] [h] | total protein half-life in vivo [6] [h] | total protein half-life in vivo [7] [h] | total protein half-life in vivo [8] [h] | total protein half-life in vivo [9] [h] | total protein half-life in vivo [10] [h] | total protein half-life in vivo [11] [h] | total protein half-life in vivo [12] [h] |
| --- | --- | --- | --- | --- | --- | --- | --- | --- | --- | --- | --- | --- |
| MDVSYLLDSLNDKQREAVAAPRSNLLVLAGAGSGKTRVLVHRIAWLMSVENCSPYSIMAVTFTNKAAAEMRHRIGQLMGTSQGGMWVGTFHGLAHRLLRAHHMDANLPQDFQILDSEDQLRLLKRLIKAMNLDEKQWPPRQAMWYINSQKDEGLRPHHIQSYGNPVEQTWQKVYQAYQEACDRAGLVDFAELLLRAHELWLNKPHILQHYRERFTNILVDEFQDTNNIQYAWIRLLAGDTGKVMIVGDDDQSIYGWRGAQVENIQRFLNDFPGAETIRLEQNYRSTSNILSAANALIENNNGRLGKKLWTDGADGEPISLYCAFNELDEARFVVNRIKTWQDNGGALAECAILYRSNAQSRVLEEALLQASMPYRIYGGMRFFERQEIKDALSYLRLIANRNDDAAFERVVNTPTRGIGDRTLDVVRQTSRDRQLTLWQACRELLQEKALAGRAASALQRFMELIDALAQETADMPLHVQTDRVIKDSGLRTMYEQEKGEKGQTRIENLEELVTATRQFSYNEEDEDLMPLQAFLSHAALEAGEGQADTWQDAVQLMTLHSAKGLEFPQVFIVGMEEGMFPSQMSLDEGGRLEEERRLAYVGVTRAMQKLTLTYAETRRLYGKEVYHRPSRFIGELPEECVEEVRLRATVSRPVSHQRMGTPMVENDSGYKLGQRVRHAKFGEGTIVNMEGSGEHSRLQVAFQGQGIKWLVAAYARLESV | 6.25 ± 0.18 | 5.48 ± 0.56 | 3.81 ± 0.25 | 4.29 ± 0.12 | 3.45 ± 0.13 | 2.96 ± 0.033 | 4.72 ± 0.42 | 8.03 ± 1.1 | 3.781 ± 0.029 | 5.67 ± 0.15 | 4.83 ± 0.25 | 7.8 ± 0.18 |
| MNKVVLLCRPGFEKECAAEITDKAGQREIFGFARVKENAGYVIYECYQPDDGDKLIRELPFSSLIFARQWFVVGELLQHLPPEDRITPIVGMLQGVVEKGGELRVEVADTNESKELLKFCRKFTVPLRAALRDAGVLANYETPKRPVVHVFFIAPGCCYTGYSYSNNNSPFYMGIPRLKFPADAPSRSTLKLEEAFHVFIPADEWDERLANGMWAVDLGACPGGWTYQLVKRNMWVYSVDNGPMAQSLMDTGQVTWLREDGFKFRPTRSNISWMVCDMVEKPAKVAALMAQWLVNGWCRETIFNLKLPMKKRYEEVSHNLAYIQAQLDEHGINAQIQARQLYHDREEVTVHVRRIWAAVGGRRDER [P0ADR6] | 5.236 ± 0.0068 | 4.78 ± 0.26 | 4.77 ± 0.28 | 5.75 ± 1 | 4.81 ± 0.15 | 3.45 ± 0.77 | 5.93 ± 0.44 | 10.2 ± 0.49 | 4.78 ± 0.28 | 8.148 ± 0.00089 | 5.72 ± 0.16 | 11.6 ± 0.63 |
| MAAINTKVKKAVIPVAGLGTRMLPATKAIPKEMLPLVDKPLIQYVVNECIAAGITEIVLVTHSSKNSIENHFDTSFELEAMLEKRVKRQLLDEVQSICPPHVTIMQVRQGLAKGLGHAVLCAHPVVGDEPVAVILPDVILDEYESDLSQDNLAEMIRRFDETGHSQIMVEPVADVTAYGVVDCKGVELAPGESVPMVGVVEKPKADVAPSNLAIVGRYVLSADIWPLLAKTPPGAGDEIQLTDAIDMLIEKETVEAYHMKGKSHDCGNKLGYMQAFVEYGIRHNTLGTEFKAWLEEEMGIKK [P0AEP3] | 4.77 ± 0.41 | 4.87 ± 0.81 | 4.91 ± 0.62 | 5.41 ± 0.14 | 4.728 ± 0.0092 |  | 5.71 ± 0.23 | 10.8 ± 1.1 | 4.65 ± 0.13 | 7.63 ± 0.25 | 5.72 ± 0.074 | 11.6 ± 0.14 |
| MCSIFGVFDIKTDAVELRKKALELSRLMRHRGPDWSGIYASDNAILAHERLSIVDVNAGAQPLYNQQKTHVLAVNGEIYNHQALRAEYGDRYQFQTGSDCEVILALYQEKGPEFLDDLQGMFAFALYDSEKDAYLIGRDHLGIIPLYMGYDEHGQLYVASEMKALVPVCRTIKEFPAGSYLWSQDGEIRSYYHRDWFDYDAVKDNVTDKNELRQALEDSVKSHLMSDVPYGVLLSGGLDSSIISAITKKYAARRVEDQERSEAWWPQLHSFAVGLPGSPDLKAAQEVANHLGTVHHEIHFTVQEGLDAIRDVIYHIETYDVTTIRASTPMYLMSRKIKAMGIKMVLSGEGSDEVFGGYLYFHKAPNAKELHEETVRKLLALHMYDCARANKAMSAWGVEARVPFLDKKFLDVAMRINPQDKMCGNGKMEKHILRECFEAYLPASVAWRQKEQFSDGVGYSWIDTLKEVAAQQVSDQQLETARFRFPYNTPTSKEAYLYREIFEELFPLPSAAECVPGGPSVACSSAKAIEWDEAFKKMDDPSGRAVGVHQSAYK | 3.62 ± 0.55 | 2.71 ± 0.25 | 2.84 ± 0.048 | 3.181 ± 0.025 | 2.55 ± 0.069 | 2.87 ± 0.069 | 4.97 ± 0.21 | 7.86 ± 0.95 | 2.69 ± 0.025 | 3.857 ± 0.0049 | 5.61 ± 0.3 | 10.4 ± 0.4 |
